Assay [1] addresses T1, 3A6 mutant FR1.
T1 construct: also called 3A6 FR1; 3A6-FR1 (VH4-34 FR1 mutant)
The experiment in a line: flow cytometry, % parent (FITC), CHO cells expressing 3A6 mutant FR1.
Experimental: (§1) FACS was performed according to standard protocols. Briefly, cells were assayed in PBS with 0.5% BSA and 2 mM EDTA. […] Following this, cells were incubated with a secondary anti-mouse FITC antibody for 30 mins at 4° C. FITC readout was measured by FACS on a benchtop flow cytometer.

Assay [2] addresses T2, Tabalumab mutant FR1.
T2 construct: also called Taba FR1
The assay can be described thus: flow cytometry, % parent (FITC), CHO cells expressing tabalumab mutant FR1.
Experimental: (§2) For FACS evaluation, cells were assayed in PBS with 0.5% BSA and 2 mM EDTA. […] Cells were incubated with a secondary anti-mouse FITC antibody for 20 mins at 4° C. FITC readout was measured by FACS.

In assay [3] the target is T3, Zanolimumab mutant FR1.
T3 construct: also called Zano FR1
The assay can be described thus: flow cytometry, % parent (FITC), CHO cells expressing zanolimumab mutant FR1.
Experimental: as §2

Assay [4] deals with T4, 3A6.
T4 construct: also called 3A6 antibody (containing VH4-34 antigen); 3A6 (VH4-34 antigen)
T4 sequence (VH, as listed by the source, chain 1 of 2): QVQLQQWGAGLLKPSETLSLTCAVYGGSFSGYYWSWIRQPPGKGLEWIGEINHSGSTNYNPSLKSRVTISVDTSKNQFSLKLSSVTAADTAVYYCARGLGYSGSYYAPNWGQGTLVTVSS
T4 sequence (VL, as listed by the source, chain 2 of 2): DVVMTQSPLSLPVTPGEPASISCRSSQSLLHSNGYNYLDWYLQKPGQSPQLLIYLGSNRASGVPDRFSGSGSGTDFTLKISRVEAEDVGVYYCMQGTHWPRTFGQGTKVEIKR
The experiment in a line: flow cytometry, EC50 of % parent (FITC), CHO cells overexpressing surface 3A6.
Experimental: as §1

In assay [5] the target is T4, 3A6. Described as above. This is another data set of the same source.
Experimental: as §2
In a further assay the target is T5, IGM-55.5.
T5 construct: Cold agglutinin antibody coated on the plate in the ELISA
The assay can be described thus: ELISA on plate-coated IGM-55.5 (1 ug/ml), detection with HRP goat anti-mouse IgG.

The target in assay [6] is T6, antibodies containing VH4-34 endogenously expressed by cell line OCI-Ly3.
T6 construct: Whole, on cells; also called VH4-34-expressing cell line OCI-Ly3
The assay can be described thus: flow cytometry, EC50 of % parent (PE), OCI-Ly3 cells endogenously expressing VH4-34.
Experimental: (§3) FACS was performed according to standard protocols. Briefly, cells were assayed in PBS with 0.5% BSA and 2 mM EDTA. Live dead staining was performed with a live dead cell dye for 15 minutes at 4° C. […] Following this, cells were incubated with a secondary PE goat anti-mouse IgG for 30 mins at 4° C. and PE readout was measured.

The target of assay [7] is tabalumab. The experiment in a line: flow cytometry, EC50 of % parent (FITC), CHO cells overexpressing surface tabalumab (TABA).
tabalumab, sequence (VH, as listed by the source, chain 1 of 2): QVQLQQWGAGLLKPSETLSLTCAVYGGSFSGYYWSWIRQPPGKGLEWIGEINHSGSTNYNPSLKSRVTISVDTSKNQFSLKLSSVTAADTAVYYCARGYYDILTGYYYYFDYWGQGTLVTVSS
tabalumab, sequence (VL, as listed by the source, chain 2 of 2): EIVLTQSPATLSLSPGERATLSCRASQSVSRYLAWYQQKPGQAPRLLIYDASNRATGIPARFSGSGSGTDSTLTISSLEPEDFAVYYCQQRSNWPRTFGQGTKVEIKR
Experimental: as §1
Assay [8] has as its target tabalumab. The assay can be described thus: flow cytometry, EC50 of % parent (FITC), CHO cells overexpressing surface tabalumab (Taba).
Experimental: as §2
The target in assay [9] is T7, zanolimumab.
T7 construct: VH4-34-containing antibody used as the antigen, overexpressed on the surface of CHO cells; also called Zano.hIgG1
T7 sequence (VH, as listed by the source, chain 1 of 2): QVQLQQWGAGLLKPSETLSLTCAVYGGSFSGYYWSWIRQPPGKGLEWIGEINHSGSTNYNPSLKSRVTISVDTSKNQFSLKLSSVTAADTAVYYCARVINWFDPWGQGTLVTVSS
T7 sequence (VL, as listed by the source, chain 2 of 2): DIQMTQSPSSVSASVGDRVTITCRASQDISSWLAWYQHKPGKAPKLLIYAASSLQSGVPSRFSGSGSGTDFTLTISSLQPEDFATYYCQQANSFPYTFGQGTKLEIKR
The experiment in a line: flow cytometry, EC50 of % parent (FITC), CHO cells overexpressing surface zanolimumab (ZANO).
Experimental: as §1

In assay [10] the target is T7, zanolimumab. The assay can be described thus: flow cytometry, EC50 of % parent (FITC), CHO cells overexpressing surface zanolimumab (Zano).
Experimental: as §2
For assay [11], the target named is T3, Zanolimumab mutant FR1. The assay can be described thus: flow cytometry, % parent (FITC), CHO cells expressing zanolimumab mutant FR1. This is another data set of the same source.
Experimental: as §1
The target of assay [12] is T4, 3A6. The assay can be described thus: flow cytometry, EC50 of % parent (FITC), CHO cells overexpressing surface 3A6. The source holds these as a separate data set.
Experimental: as §1
Assay [13] deals with tabalumab. The assay can be described thus: flow cytometry, EC50 of % parent (FITC), CHO cells overexpressing surface tabalumab (Taba). This is another data set of the same source.
Experimental: as §1
Assay [14] has as its target T7, zanolimumab. The experiment in a line: flow cytometry, EC50 of % parent (FITC), CHO cells overexpressing surface zanolimumab (Zano); curve in FIG. 1A reaches only about 45 % parent.
Experimental: as §1
Assay [15] concerns the target T1, 3A6 mutant FR1. The assay can be described thus: flow cytometry, EC50 of % parent (FITC), CHO cells expressing 3A6 mutant FR1 (3A6 FR1); curve in FIG. 2A reaches about 95 % parent.
Experimental: as §1
Assay [16] concerns the target T6, antibodies containing VH4-34 …. The assay can be described thus: flow cytometry, EC50 of % parent (PE), OCI-Ly3 cells endogenously expressing VH4-34; curve in FIG. 4A reaches only about 40 % parent.
Experimental: as §3
For assay [17], the target named is T3, Zanolimumab mutant FR1. The assay can be described thus: flow cytometry, EC50 of % parent (FITC), CHO cells expressing zanolimumab mutant FR1 (ZANO FR1); curve in FIG. 2A reaches about 95 % parent.
Experimental: as §1
For assay [18], the target named is T2, Tabalumab mutant FR1. The experiment in a line: flow cytometry, EC50 of % parent (FITC), CHO cells expressing tabalumab mutant FR1 (TABA FR1); curve in FIG. 2A levels at only about 15 % parent.
T2 sequence (VH, as listed by the source, chain 1 of 2): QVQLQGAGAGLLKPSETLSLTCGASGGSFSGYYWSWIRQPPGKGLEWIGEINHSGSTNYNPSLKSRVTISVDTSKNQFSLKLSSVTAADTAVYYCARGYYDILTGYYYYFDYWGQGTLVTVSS
Experimental: as §1
In assay [19] the target is T2, Tabalumab mutant FR1. The assay can be described thus: flow cytometry, % parent (FITC), CHO cells expressing tabalumab mutant FR1. This is another data set of the same source.
Experimental: as §1
Assay [20] addresses T3, Zanolimumab mutant FR1. The experiment in a line: flow cytometry, % parent (FITC), CHO cells expressing zanolimumab mutant FR1. The source holds these as a separate data set.
Experimental: as §1

Read-outs that look alike come from different tables or passages of the source.

T3 sequence (VH, as listed by the source, chain 1 of 2): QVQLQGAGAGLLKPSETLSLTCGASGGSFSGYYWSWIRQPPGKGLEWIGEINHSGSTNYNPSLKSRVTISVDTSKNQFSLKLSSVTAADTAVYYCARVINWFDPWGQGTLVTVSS
T1 sequence (VH, as listed by the source, chain 1 of 2): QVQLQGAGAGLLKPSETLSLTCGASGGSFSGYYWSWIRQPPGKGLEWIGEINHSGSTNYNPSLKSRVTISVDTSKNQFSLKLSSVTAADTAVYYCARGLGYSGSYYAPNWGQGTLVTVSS
Experimental for IGM-55.5: Plate was washed 3× with TBS+0.1% Tween 20. […] A secondary antibody (HRP-conjugated goat anti-mouse IgG) was prepared at 1:5000 dilution in blocking buffer and added to the plate with 1 hr incubation RT. TMB ELISA substrate was added and incubated for 15 mins at RT in the dark, before adding the stop solution. The absorbance was read at 450 nm.

B1: D011-7016.IgG2a (antibody)
heavy: EVQLVESGPSLVKPSQTLSLICSVTGDSITSGYWNWVRKFPGNKLEYMGYISYSGSAHYNPSLKSRISITRDTSKNQYYLQLNSMTTEDTATYYCASYSFAYWGQGTLVTVSAASTKGPSVFPLAPSSKSTSGGTAALGCLVKDYFPEPVTVSWNSGALTSGVHTFPAVLQSSGLYSLSSVVTVPSSSLGTQTYICNVNHKPSNTKVDKKVEPKSCDKTHTCPPCPAPELLGGPSVFIFPPKIKDVLMISLSPIVTCVVVDVSEDDPDVQISWFVNNVEVHTAQTQTHREDYNSTLRVVSALPIQHQDWMSGKEFKCKVNNKDLPAPIERTISKPKGSVRAPQVYVLPPPEEEMTKKQVTLTCMVTDFMPEDIYVEWTNNGKTELNYKNTEPVLDSDGSYFMYSKLRVEKKNWVERNSYSCSVVHEGLHNHHTTKSFSRTPGK
light: DIVMTQSPATLSVTPGDSVSLSCRANQSIDNNLHWYQQRSHESPRLLINYASQSISGIPSRFSGSGSGTDFTLSISSVETEDFGMYFCQQSYGWPYTFGGGTKLEIKRTVAAPSVFIFPPSDEQLKSGTASVVCLLNNFYPREAKVQWKVDNALQSGNSQESVTEQDSKDSTYSLSSTLTLSKADYEKHKVYACEVTHQGLSSPVTKSFNRGEC
notes: also called [4]
Consider B1, for which the results for the binding result in the assay with 3A6 mutant FR1 [1], in the assay with Tabalumab mutant FR1 [2] and in the assay with Zanolimumab mutant FR1 [3] were “no binding (tested: Log M about -7.2 (about 7e-8 M))”, “no binding (tested: Log M about -8.1 (about 8e-9 M))” and “no binding (tested: Log M about -8.1 (about 8e-9 M))”, respectively. Moreover, the EC50 with 3A6 [4] amounted to 0.0258 nM; with 3A6 [5], 0.00751 nM; in assay [6], 0.0194 nM; with tabalumab [7], 0.0313 nM; with tabalumab [8], 0.00558 nM; in the assay with zanolimumab [9], 0.0164 nM. In addition, the EC50 with zanolimumab [10] was 0.00926 nM. Further, the concentration for a half-maximal effect (EC50 (read off the curve)) with IGM-55.5 is roughly 0.0002 nM.

B2: D011-1E11p.IgG2a (antibody, V domains shown)
VH: EVQLQQSGPELVKPGASMKISCKASGYSFTGSTMNWVKQSPGKNLEWIGLINPYNGGTSYNQKFEGKATLTVDKSSSTAYMELLSLTSVDSAVYYCASRGKNGYDGRDFDCWGQGTSVTVSS
VL: DIVLTQSPLSLPVNIGDQASISCKSTKSLLNSGGFTYLDWYLQKPGQSPQLLIYLVSNRFSGVPDRFSGSGSGTDFTLKISRVEAEDLGVYYCFQSNYFPFTFGSGTKLEIKR
Regarding B2, the binding result with Zanolimumab mutant FR1 [11] is listed as “no binding (tested: Log M about -7.2 (about 7e-8 M))”. In addition, the EC50 was 1.52 nM with 3A6 [12], 0.0823 nM with tabalumab [13] and 3.49 nM with zanolimumab [14].

B3: D011-6040 (antibody, human IgG1, kappa, V domains shown)
VH: EVQLQQSGAEFVRSGASVKLSCTASGFNIKDYYMHWVKQRPEQGLDWIGWIDPENGDADYDPKFQGKATMTADTSSNTAYLHLSSLTSEDAAVYYCNACHYYGYEDAMDYWGQGTSVTVSS
VL: DIQMTQSPSSLSASLGERVSLTCRASQEISGYLSWLQQKPDGTIKRLIYAASTLDSGVPKRFSGSRSGSDYSLTISSLESEDFADYYCLQYAGYPRTFGGGTRLEIKR
notes: also called [3]; D011-6040.IgG2a
On to B3, for which the EC50 with 3A6 [4] was determined as 0.00895 nM; in the assay with tabalumab [7], 0.00587 nM; with zanolimumab [9], 0.0043 nM; with 3A6 mutant FR1 [15], 4.8 nM; in [16], 0.661 nM; in the assay with Zanolimumab mutant FR1 [17], 0.821 nM. In addition, in the assay with Tabalumab mutant FR1 [18], the EC50 came to 3.93 nM.

B4: D011-6039.IgG2a (antibody, V domains shown)
VH: EVMLVESGGGLVQPGGSLKLSCAASGFTFSSYGMSWVRQTPDKRLELVATINSNGVNTYYPDSVKGRFTISRDNAKNTLYLQMSSLKSEDTAMYYCARVPFDYWGQGTSLTVSS
VL: DIVMTQSPAIMSASLGEKVTMSCRASSSVDYIYWYQQKSDASPKLWIYYTSTLAPGVPARFSGSGSGNSYSLTISSMEGEDAATYYCQQFTSSPWTFGGGTRLEIKR
On to B4, for which the binding result with 3A6 mutant FR1 [1], with Tabalumab mutant FR1 [19] and in the assay with Zanolimumab mutant FR1 [20] was “no binding (tested: Log M about -7.2 (about 7e-8 M))” each time. Also, the EC50 with 3A6 [4] was found to be 8.96 nM; in [6] it was 0.273 nM; with tabalumab [7] it was 0.0444 nM; in the assay with zanolimumab [9] it was 10.4 nM.

Source of the values: patent US20260274993A1 (HUMMINGBIRD BIOSCIENCE PTE, published 2026).
